# Data: patent publication US20200299341A1 (SOCIETE DE COMMERCIALISATION DES PRODUITS DE LA RECHERCHE …, published 2020)
# B1: Mad1*DN-KR (Mad1 b-HLH-LZ domain with C75S, E77K, G81R, C111S, D112N) (other)
# chain: MSRSTHNEMEKNRRAHLRLSLKKLKRLVPLGPESSRHTTLSLLTKAKLHIKKLEDSNRKAVHQVDQLQREQRHLKRQLEKLGGSGC
# notes: Engineered variant of the human Mad1 b-HLH-LZ domain; It forms a homodimer alone and a heterodimer with Max*; also called KR analog of Mad1*DN
# Biological target: the molecule itself
# Experiment: CD thermal denaturation at 222 nm, 16 uM, homodimer
# Experimental: 16 μM of Mad1*DN, Mad1*DN-KR and/or Max* diluted in Phosphate buffer (50 mM) containing 50 mM KCl and 0.5 mM TCEP were subjected to temperature increase as the dichroic signal corresponding to α-Helical signal (222 nm) was recorded. Individual denaturation curves for each protein was recorded. To compare the heterodimeric complex formation, Mad1*DN or Mad1*DN-KR were mixed with Max* at equimolar concentration (16 μM each) in the same buffer adjusted at 1 mM TCEP. The experimental denaturation curves of the complexes (Mad1*DN/Max* or Mad1DN-KR/Max*) were compared to the summation of the individual curves of each homodimer which correspond to an absence of interaction between the two proteins in solution.
protein,measurement,value
B1,binding result,binds
